Measured values from EP4671273A1 (Anaveon AG, dated 2025).

B1: EFY288 (bispecific antibody, human IgG1, kappa, lambda, L234A L235A)
heavy 1: EVQLLESGGGLVQPGGSLRLSCAASGFTFSINAMTWVRQAPGKGLEWVSTISGSGFSTYYADSLKGRFTISRDNSKNTLYLQMNSLRAEDTAVYYCAKEVYGDYWGQGTLVTVSSASTKGPSVFPLAPSSKSTSGGTAALGCLVKDYFPEPVTVSWNSGALTSGVHTFPAVLQSSGLYSLSSVVTVPSSSLGTQTYICNVNHKPSNTKVDKRVEPKSCDKTHTCPPCPAPEAAGGPSVFLFPPKPKDTLMISRTPEVTCVVVDVSHEDPEVKFNWYVDGVEVHNAKTKPREEQYNSTYRVVSVLTVLHQDWLNGKEYKCKVSNKALAAPIEKTISKAKGQPREPQVCTLPPSREEMTKNQVSLSCAVKGFYPSDIAVEWESNGQPENNYKTTPPVLDSDGSFFLVSKLTVDKSRWQQGNVFSCSVMHEALHNHYTQKSLSLSPGK
light 1: not shown
heavy 2: QVQLQESGPGLVKPSETLSLTCTVSGGSISSDYWGWIRQPPGKGLEWIGYISYRGSTNYNPSLKSRVTISVDTSRNQFSLKLSSVTAADTAVYYCARSAGVTDFDAWGQGTLVTVSSASTKGPSVFPLAPSSKSTSGGTAALGCLVKDYFPEPVTVSWNSGALTSGVHTFPAVLQSSGLYSLSSVVTVPSSSLGTQTYICNVNHKPSNTKVDKRVEPKSCDKTHTCPPCPAPEAAGGPSVFLFPPKPKDTLMISRTPEVTCVVVDVSHEDPEVKFNWYVDGVEVHNAKTKPREEQYNSTYRVVSVLTVLHQDWLNGKEYKCKVSNKALAAPIEKTISKAKGQPREPQVYTLPPCREEMTKNQVSLWCLVKGFYPSDIAVEWESNGQPENNYKTTPPVLDSDGSFFLYSKLTVDKSRWQQGNVFSCSVMHEALHNHYTQKSLSLSPGK
light 2: not shown
B2: CDP278 (bispecific antibody, human IgG1, kappa, lambda, L234A L235A)
heavy 1: EVQLLESGGGLVQPGGSLRLSCAASGFTFSINAMTWVRQAPGKGLEWVSTISGSGFSTYYADSLKGRFTISRDNSKNTLYLQMNSLRAEDTAVYYCAKEVYGDYWGQGTLVTVSSASTKGPSVFPLAPSSKSTSGGTAALGCLVKDYFPEPVTVSWNSGALTSGVHTFPAVLQSSGLYSLSSVVTVPSSSLGTQTYICNVNHKPSNTKVDKRVEPKSCDKTHTCPPCPAPEAAGGPSVFLFPPKPKDTLMISRTPEVTCVVVDVSHEDPEVKFNWYVDGVEVHNAKTKPREEQYNSTYRVVSVLTVLHQDWLNGKEYKCKVSNKALAAPIEKTISKAKGQPREPQVCTLPPSREEMTKNQVSLSCAVKGFYPSDIAVEWESNGQPENNYKTTPPVLDSDGSFFLVSKLTVDKSRWQQGNVFSCSVMHEALHNHYTQKSLSLSPGK
light 1: not shown
heavy 2: QVQLQESGPGLVKPSETLSLTCTVSGGSISSDFWGWIRQPPGKGLEWIGYISSRGSTNYNPSLKRRVTISVDTSRNQFSLKLSSVTAADTAVYYCARSAGVTDFDFWGQGTLVTVSSASTKGPSVFPLAPSSKSTSGGTAALGCLVKDYFPEPVTVSWNSGALTSGVHTFPAVLQSSGLYSLSSVVTVPSSSLGTQTYICNVNHKPSNTKVDKRVEPKSCDKTHTCPPCPAPEAAGGPSVFLFPPKPKDTLMISRTPEVTCVVVDVSHEDPEVKFNWYVDGVEVHNAKTKPREEQYNSTYRVVSVLTVLHQDWLNGKEYKCKVSNKALAAPIEKTISKAKGQPREPQVYTLPPCREEMTKNQVSLWCLVKGFYPSDIAVEWESNGQPENNYKTTPPVLDSDGSFFLYSKLTVDKSRWQQGNVFSCSVMHEALHNHYTQKSLSLSPGK
light 2: not shown
B3: CDP451 (bispecific antibody, human IgG1, kappa, lambda, L234A L235A)
heavy 1: EVQLLESGGGLVQPGGSLRLSCAASGFTFSINAMTWVRQAPGKGLEWVSTISGSGFSTYYADSLKGRFTISRDNSKNTLYLQMNSLRAEDTAVYYCAKEVYGDYWGQGTLVTVSSASTKGPSVFPLAPSSKSTSGGTAALGCLVKDYFPEPVTVSWNSGALTSGVHTFPAVLQSSGLYSLSSVVTVPSSSLGTQTYICNVNHKPSNTKVDKRVEPKSCDKTHTCPPCPAPEAAGGPSVFLFPPKPKDTLMISRTPEVTCVVVDVSHEDPEVKFNWYVDGVEVHNAKTKPREEQYNSTYRVVSVLTVLHQDWLNGKEYKCKVSNKALAAPIEKTISKAKGQPREPQVCTLPPSREEMTKNQVSLSCAVKGFYPSDIAVEWESNGQPENNYKTTPPVLDSDGSFFLVSKLTVDKSRWQQGNVFSCSVMHEALHNHYTQKSLSLSPGK
light 1: not shown
heavy 2: QVQLQESGPGLVKPSETLSLTCTVSGGSISSDFWGWIRQPPGKGLEWIGYISSRGSTNYNPSLKRRVTISVDTSRNQFSLKLSSVTAADTAVYYCARSAGVTDFDFWGQGTLVTVSSASTKGPSVFPLAPSSKSTSGGTAALGCLVKDYFPEPVTVSWNSGALTSGVHTFPAVLQSSGLYSLSSVVTVPSSSLGTQTYICNVNHKPSNTKVDKRVEPKSCDKTHTCPPCPAPEAAGGPSVFLFPPKPKDTLMISRTPEVTCVVVDVSHEDPEVKFNWYVDGVEVHNAKTKPREEQYNSTYRVVSVLTVLHQDWLNGKEYKCKVSNKALAAPIEKTISKAKGQPREPQVYTLPPCREEMTKNQVSLWCLVKGFYPSDIAVEWESNGQPENNYKTTPPVLDSDGSFFLYSKLTVDKSRWQQGNVFSCSVMHEALHNHYTQKSLSLSPGK
light 2: not shown
B4: GWM570 (bispecific antibody, human IgG1, kappa, lambda, L234A L235A)
heavy 1: EVQLLESGGGLVQPGGSLRLSCAASGFTFSINAMTWVRQAPGKGLEWVSTISGSGFSTYYADSLKGRFTISRDNSKNTLYLQMNSLRAEDTAVYYCAKEVYGDYWGQGTLVTVSSASTKGPSVFPLAPSSKSTSGGTAALGCLVKDYFPEPVTVSWNSGALTSGVHTFPAVLQSSGLYSLSSVVTVPSSSLGTQTYICNVNHKPSNTKVDKRVEPKSCDKTHTCPPCPAPEAAGGPSVFLFPPKPKDTLMISRTPEVTCVVVDVSHEDPEVKFNWYVDGVEVHNAKTKPREEQYNSTYRVVSVLTVLHQDWLNGKEYKCKVSNKALAAPIEKTISKAKGQPREPQVCTLPPSREEMTKNQVSLSCAVKGFYPSDIAVEWESNGQPENNYKTTPPVLDSDGSFFLVSKLTVDKSRWQQGNVFSCSVMHEALHNHYTQKSLSLSPGK
light 1: not shown
heavy 2: QVQLQESGPGLVKPSETLSLTCTVSGGSISSDFWGWIRQPPGKGLEWIGYISSRGSTNYNPSLKRRVTISVDTSRNQFSLKLSSVTAADTAVYYCARSAGVTDFDFWGQGTLVTVSSASTKGPSVFPLAPSSKSTSGGTAALGCLVKDYFPEPVTVSWNSGALTSGVHTFPAVLQSSGLYSLSSVVTVPSSSLGTQTYICNVNHKPSNTKVDKRVEPKSCDKTHTCPPCPAPEAAGGPSVFLFPPKPKDTLMISRTPEVTCVVVDVSHEDPEVKFNWYVDGVEVHNAKTKPREEQYNSTYRVVSVLTVLHQDWLNGKEYKCKVSNKALAAPIEKTISKAKGQPREPQVYTLPPCREEMTKNQVSLWCLVKGFYPSDIAVEWESNGQPENNYKTTPPVLDSDGSFFLYSKLTVDKSRWQQGNVFSCSVMHEALHNHYTQKSLSLSPGK
light 2: not shown
B5: CHU368 (bispecific antibody, human IgG1, kappa, lambda, L234A L235A)
heavy 1: EVQLLESGGGLVQPGGSLRLSCAASGFTFSINAMTWVRQAPGKGLEWVSTISGSGFSTYYADSLKGRFTISRDNSKNTLYLQMNSLRAEDTAVYYCAKEVYGDYWGQGTLVTVSSASTKGPSVFPLAPSSKSTSGGTAALGCLVKDYFPEPVTVSWNSGALTSGVHTFPAVLQSSGLYSLSSVVTVPSSSLGTQTYICNVNHKPSNTKVDKRVEPKSCDKTHTCPPCPAPEAAGGPSVFLFPPKPKDTLMISRTPEVTCVVVDVSHEDPEVKFNWYVDGVEVHNAKTKPREEQYNSTYRVVSVLTVLHQDWLNGKEYKCKVSNKALAAPIEKTISKAKGQPREPQVCTLPPSREEMTKNQVSLSCAVKGFYPSDIAVEWESNGQPENNYKTTPPVLDSDGSFFLVSKLTVDKSRWQQGNVFSCSVMHEALHNHYTQKSLSLSPGK
light 1: not shown
heavy 2: QVQLQESGPGLVKPSETLSLTCTVSGGSISSDYWGWIRQPPGKGLEWIGYISYRGSTNYNPSLKSRVTISVDTSRNQFSLKLSSVTAADTAVYYCARSAGVTDFDAWGQGTLVTVSSASTKGPSVFPLAPSSKSTSGGTAALGCLVKDYFPEPVTVSWNSGALTSGVHTFPAVLQSSGLYSLSSVVTVPSSSLGTQTYICNVNHKPSNTKVDKRVEPKSCDKTHTCPPCPAPEAAGGPSVFLFPPKPKDTLMISRTPEVTCVVVDVSHEDPEVKFNWYVDGVEVHNAKTKPREEQYNSTYRVVSVLTVLHQDWLNGKEYKCKVSNKALAAPIEKTISKAKGQPREPQVYTLPPCREEMTKNQVSLWCLVKGFYPSDIAVEWESNGQPENNYKTTPPVLDSDGSFFLYSKLTVDKSRWQQGNVFSCSVMHEALHNHYTQKSLSLSPGK
light 2: not shown
B6: XOW683 (bispecific antibody, human IgG1, kappa, lambda, L234A L235A)
heavy 1: EVQLLESGGGLVQPGGSLRLSCAASGFTFSINAMTWVRQAPGKGLEWVSTISGSGFSTYYADSLKGRFTISRDNSKNTLYLQMNSLRAEDTAVYYCAKEVYGDYWGQGTLVTVSSASTKGPSVFPLAPSSKSTSGGTAALGCLVKDYFPEPVTVSWNSGALTSGVHTFPAVLQSSGLYSLSSVVTVPSSSLGTQTYICNVNHKPSNTKVDKRVEPKSCDKTHTCPPCPAPEAAGGPSVFLFPPKPKDTLMISRTPEVTCVVVDVSHEDPEVKFNWYVDGVEVHNAKTKPREEQYNSTYRVVSVLTVLHQDWLNGKEYKCKVSNKALAAPIEKTISKAKGQPREPQVCTLPPSREEMTKNQVSLSCAVKGFYPSDIAVEWESNGQPENNYKTTPPVLDSDGSFFLVSKLTVDKSRWQQGNVFSCSVMHEALHNHYTQKSLSLSPGK
light 1: not shown
heavy 2: QVQLQESGPGLVKPSETLSLTCTVSGGSISSDYWGWIRQPPGKGLEWIGYISYSGSTNYNPSLKSRVTISVDTSRNQFSLKLSSVTAADTAVYYCARSAGVTDFDAWGQGTLVTVSSASTKGPSVFPLAPSSKSTSGGTAALGCLVKDYFPEPVTVSWNSGALTSGVHTFPAVLQSSGLYSLSSVVTVPSSSLGTQTYICNVNHKPSNTKVDKRVEPKSCDKTHTCPPCPAPEAAGGPSVFLFPPKPKDTLMISRTPEVTCVVVDVSHEDPEVKFNWYVDGVEVHNAKTKPREEQYNSTYRVVSVLTVLHQDWLNGKEYKCKVSNKALAAPIEKTISKAKGQPREPQVYTLPPCREEMTKNQVSLWCLVKGFYPSDIAVEWESNGQPENNYKTTPPVLDSDGSFFLYSKLTVDKSRWQQGNVFSCSVMHEALHNHYTQKSLSLSPGK
light 2: not shown

Biological target: human IL-21 receptor (IL-21R) on cells (human, UniProt Q9HBE5 20-538; P31785 23-369)
Sequence (Q9HBE5 20-538, chain 1 of 2): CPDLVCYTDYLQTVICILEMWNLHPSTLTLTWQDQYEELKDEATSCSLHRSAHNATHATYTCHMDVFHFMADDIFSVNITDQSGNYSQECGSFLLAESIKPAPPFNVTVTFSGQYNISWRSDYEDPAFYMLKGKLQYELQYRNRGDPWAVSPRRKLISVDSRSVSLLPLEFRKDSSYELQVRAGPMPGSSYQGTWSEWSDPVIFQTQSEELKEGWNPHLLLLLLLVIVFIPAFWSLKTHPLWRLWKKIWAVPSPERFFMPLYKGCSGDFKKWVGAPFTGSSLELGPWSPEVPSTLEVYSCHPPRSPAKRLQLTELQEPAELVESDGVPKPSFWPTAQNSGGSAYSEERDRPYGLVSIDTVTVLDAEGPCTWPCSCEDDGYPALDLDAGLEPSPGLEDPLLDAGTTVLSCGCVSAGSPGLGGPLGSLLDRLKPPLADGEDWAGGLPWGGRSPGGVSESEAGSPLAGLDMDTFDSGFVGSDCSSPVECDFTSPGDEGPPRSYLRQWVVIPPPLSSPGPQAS
Sequence (P31785 23-369, chain 2 of 2): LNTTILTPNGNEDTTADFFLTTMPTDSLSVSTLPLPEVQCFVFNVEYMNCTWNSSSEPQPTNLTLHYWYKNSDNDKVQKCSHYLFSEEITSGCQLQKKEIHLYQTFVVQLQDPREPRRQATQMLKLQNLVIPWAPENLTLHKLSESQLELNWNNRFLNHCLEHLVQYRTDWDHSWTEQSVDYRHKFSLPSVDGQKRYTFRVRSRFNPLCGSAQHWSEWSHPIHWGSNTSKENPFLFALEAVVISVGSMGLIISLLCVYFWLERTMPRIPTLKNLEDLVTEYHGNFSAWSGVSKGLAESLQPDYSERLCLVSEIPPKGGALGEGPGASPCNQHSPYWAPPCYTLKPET
Test: cell-based or functional assay

EC50B, pSTAT3+ Jurkat PD-1 cells, PD-1 blocked [nM] | EC50NB, pSTAT3+ Jurkat PD-1 cells [nM] | Binder
0.234 | 0.129 | B1
1.05 | 0.167 | B2
1.24 | 0.106 | B3
2.13 | 0.257 | B4
2.16 | 0.583 | B5
1.84 | 0.413 | B6
